B1: Bebtelovimab (antibody, V domains shown)
VH: QITLKESGPTLVKPTQTLTLTCTFSGFSLSISGVGVGWLRQPPGKALEWLALIYWDDDKRYSPSLKSRLTISKDTSKNQVVLKMTNIDPVDTATYYCAHHSISTIFDHWGQGTLVTVSS
VL: QSALTQPASVSGSPGQSITISCTATSSDVGDYNYVSWYQQHPGKAPKLMIFEVSDRPSGISNRFSGSKSGNTASLTISGLQAEDEADYYCSSYTTSSAVFGGGTKLTVLG
B2: 6R9A-A2 (antibody, V domains shown)
VH: EVQLVESGGGLVQPGGSLRLSCTASGFSFPHQAMTWVRQAPGKGLEWIGVIASNADTYYASWAKGRFTISRDNSKNTLYLQMNSLRAEDTAVYYCARHPGSAGYGYQYYYAMDPWGQGTLVTVSS
VL: DIQMTQSPSSLSASVGDRVTITCQASEEVHYGINWYQQKPGKAPKLLIYGANYRVDGVPSRFSGSGSGTDYTLTISSLQPEDFATYYCQQGYNVPTDFGGGTKVEIKR
B3: 6R8A-A2 (antibody, V domains shown)
VH: EVQLVESGGGLVQPGGSLRLSCKASGYSLNKQALTWVRQAPGKGLEWIGVIASNADTYYASWAKGRFTISRDNSKNTLYLQMNSLRAEDTAVYYCARHPGSAGYGYQYYYAMDPWGQGTLVTVSS
VL: DIQMTQSPSSLSASVGDRVTITCQASEEVHYGINWYQQKPGKAPKLLIYGANYRVDGVPSRFSGSGSGTDYTLTISSLQPEDFATYYCQQGYNVPTDFGGGTKVEIKR
B4: 6R8A-F2 (antibody, V domains shown)
VH: EVQLVESGGGLVQPGGSLRLSCKASGYSLSSQALTWVRQAPGKGLEWIGVIASNADTYYASWAKGRFTISRDNSKNTLYLQMNSLRAEDTAVYYCARHPGSAGYGYQYYYAMDPWGQGTLVTVSS
VL: DIQMTQSPSSLSASVGDRVTITCQASEKVYYGVNWYQQKPGKAPKLLIYGTNYRLDGVPSRFSGSGSGTDSTLTISSLQPEDFATYYCQQGYNVPNAFGGGTKVEIKR
B5: 6R8C-D10 (antibody, V domains shown)
VH: EVQLVESGGGLVQPGGSLRLSCTASGYSISHQAVTWVRQAPGKGLEWIGVIASNADTYYASWAKGRFTISRDNSKNTLYLQMNSLRAEDTAVYYCARHPGSAGYGYQYYYAMDPWGQGTLVTVSS
VL: DIQMTQSPSSLSASVGDRVTITCQASEEVHYGINWYQQKPGKAPKLLIYGANYRVDGVPSRFSGSGSGTDYTLTISSLQPEDFATYYCQQGYNVPTDFGGGTKVEIKR
B6: 6R8A-E11 (antibody, V domains shown)
VH: EVQLVESGGGLVQPGGSLRLSCKASGFTFSRQALTWVRQAPGKGLEWIGVIASNADTYYASWAKGRFTISRDNSKNTLYLQMNSLRAEDTAVYYCARHPGSAGYGYQYYYAMDPWGQGTLVTVSS
VL: DIQMTQSPSSLSASVGDRVTITCQASENIRYAINWYQQKPGKAPKLLIYGANYRVDGVPSRFSGSGSGTDYTLTISSLQPEDFATYYCQQGYNVPTDFGGGTKVEIKR
B7: 6R9B-B11 (antibody, V domains shown)
VH: EVQLVESGGGLVQPGGSLRLSCKASGFTFSRQALTWVRQAPGKGLEWIGVIASNADTYYASWAKGRFTISRDNSKNTLYLQMNSLRAEDTAVYYCARHPGSAGYGYQYYYAMDPWGQGTLVTVSS
VL: DIQMTQSPSSLSASVGDRVTITCQASQAIKYAINWYQQKPGKAPKLLIYGANYRGPGVPSRFSGSGSGTDYTLTISSLQPEDFATYYCQQGYIVPITFGGGTKVEIKR
B8: 6R9B-E9 (antibody, V domains shown)
VH: EVQLVESGGGLVQPGGSLRLSCKASGFTFSRQALTWVRQAPGKGLEWIGVIASNADTYYASWAKGRFTISRDNSKNTLYLQMNSLRAEDTAVYYCARHPGSAGYGYQYYYAMDPWGQGTLVTVSS
VL: DIQMTQSPSSLSASVGDRVTITCQASENIRYAVNWYQQKPGKAPKLLIYGANYRVDGVPSRFSGSGSGTDYTLTISSLQPEDFATYYCQQGYRVQILFGGGTKVEIKR
B9: 6R8C-G8 (antibody, V domains shown)
VH: EVQLVESGGGLVQLGGSLRLSCKASGYSLAPQAMTWVRQAPGKGLEWIGVIASNADTYYASWAKGRFTISRDNSKNTLYLQMNSLRAEDTAVYYCARHPGSAGYGYQYYYAMDPWGQGTLVTVSS
VL: DIQMTQSPSSLSASVGDRVTITCQASEEVHYGINWYQQKPGKAPKLLIYGANYRVDGVPSRFSGSGSGTDYTLTISSLQPEDFATYYCQQGYNVPTDFGGGTKVEIKR
B10: 6R8A-E1 (antibody, V domains shown)
VH: EVQLVESGGGLVQPGGSLRLSCKASGYSLAPQAMTWVRQAPGKGLEWIGVIASNADTYYASWAKGRFTISRDNSKNTLYLQMNSLRAEDTAVYYCARHPGSAGYGYQYYYAMDPWGQGTLVTVSS
VL: DIQMTQSPSSLSASVGDRVTITCQASENIRYAINWYQQKPGKAPKLLIYGANYRVDGVPSRFSGSGSGTDYTLTISSLQPEDFATYYCQQGYNVPTDFGGGTKVEIKR
B11: 6R9E-A8 (antibody, V domains shown)
VH: EVQLVESGGGLVQPGGSLRLSCKASGSTISHQAVTWVRQAPGKGLEWIGVIASNADTYYASWAKGRFTISRDNSKNTLYLQMNSLRAEDTAVYYCARHPGSAGYGYQYYYAMDPWGQGTLVTVSS
VL: DIQMTQSPSSLSASVGDRVTITCQASEEVHYGINWYQQKPGKAPKLLIYGANYRVDGVPSRFSGSGSGTDYTLTISSLQPEDFATYYCQQGYNVPTDFGGGTKVEIKR
B12: 6R8C-D9 (antibody, V domains shown)
VH: EVQLVESGGGLVQPGGSLRLSCKASGFTFSRQALTWVRQAPGKGLEWIGVIASNADTYYASWAKGRFTISRDNSKNTLYLQMNSLRAEDTAVYYCARHPGSAGYGYQYYYAMDPWGQGTLVTVSS
VL: DIQMTQSPSSLSASVGDRVTITCQASEEVHYGINWYQQKPGKAPKLLIYGANYRVDGVPSRFSGSGSGTDYTLTISSLQPEDFATYYCQQGYNVPTDFGGGTKVEIKR
B13: 6R8C-F10 (antibody, V domains shown)
VH: EVQLVESGGGLVQPGGSLRLSCKASGFTFSRQALTWVRQAPGKGLEWIGVIASNADTYYASWAKGRFTISRDNSKNTLYLQMNSLRAEDTAVYYCARHPGSAGYGYQYYYAMDPWGQGTLVTVSS
VL: DIQMTQSPSSLSASVGDRVTITCKASEDIRYGLNWYQQKPGKAPKLLIYGANYRVDGVPSRFSGSGSGTDYTLTISSLQPEDFATYYCQQGYNVPNFFGGGTKVEIKR

biological target: SARS-CoV-2 spike trimer (Wuhan) (SARS-CoV-2, UniProt P0DTC2); assay: competition

Question: For B1, which IC50 is on record?
Answer: Its IC50 is 0.00899 µg/mL.

Question: B2 was tested. Which IC50 did it give?
Answer: Its IC50 is 0.014 µg/mL.

Question: B3 was tested. Which IC50 did it give?
Answer: The IC50 was 0.0106 µg/mL.

Question: B4 was tested. Which IC50 did it give?
Answer: Its IC50 is 0.0169 µg/mL.

Question: How did the IC50 turn out when B5 was run?
Answer: Its IC50 is 0.0098 µg/mL.

Question: B6 was tested. Which IC50 did it give?
Answer: The IC50 was 0.0116 µg/mL.

Question: How did the IC50 turn out when B7 was run?
Answer: The IC50 was 0.015 µg/mL.

Question: B8 was tested. Which IC50 did it give?
Answer: The IC50 was 0.0185 µg/mL.

Question: For B9, which IC50 is on record?
Answer: The IC50 was 0.0124 µg/mL.

Question: With B10 as the binder, how does the IC50 read?
Answer: Its IC50 is 0.0122 µg/mL.

Question: With B11 as the binder, how does the IC50 read?
Answer: The IC50 was 0.0274 µg/mL.

Question: With B12 as the binder, how does the IC50 read?
Answer: The IC50 was 0.0203 µg/mL.

Question: How did the IC50 turn out when B13 was run?
Answer: Its IC50 is 0.0145 µg/mL.
